Experimental data reported in US20130022606A1.

B1: HE06.642 (antibody, V domains shown)
VH: EVQLVESGGGLVQPGGSLRLSCAVSGFTFSSYGMSWVRQAPGKGLEWVATVSSGGTYTYYPDSVKGRFTISRDNSKNTLYLQMNSLRAEDTAVYYCARHRGNYYATYYYAMDYWGQGTLVTVSS
VL: DIVLTQSPDSLAVSLGERATINCKASKSVSTSGYTYMHWYQQKPGQPPKLLIYLASNRESGVPDRFSGSGSGTDFTLTISPVQAEDVATYYCQHSGELPPSFGQGTKLEIKR
B2: XHA06.642 (antibody, V domains shown)
VH: EVQLVESGGDLVKPGGSLKLSCAVSGFTFSSYGMSWVRQTPDKRLEWVATVSSGGTYTYYPDSVKGRFTISRDNAKNTLYLQMSSLKSEDSAMYYCARHRGNYYATYYYAMDYWGQGTSVTVSS
VL: DIVLTQSPASLAVSLGQGATISCRASKSVSTSGYTYMHWYQQKPGQPPKLLIYLASNLESGVPARFSGSGSGTDFTLNIHPVEEEDAATYYCQHSGELPPSFGGGTKLEIKR
B3: 001-E06 (IgG1) (antibody, V domains shown)
VH: QVELLESGGGLVQPGGSLRLSCAASGFTFSSYWMSWVRQAPGKGLEWVSSVSDTGTDTHYADSVKGRFTISRDNSKNTLYLQMNSLRAEDTAVYYCAKTPLAYSSGWYYFDYWGQGTLVTVSS
VL: DIVLTQPPSASGTPGQRVTISCSGSSSNIGSNTVNWYQQLPGTAPKLLIYRNYQRPSGVPDRFSGSKSGTSASLAISGLRSEDEADYYCQSYDSSLSGSVFGGGTKLTVLG

Biological target: rat prolactin receptor on Nb2 rat lymphoma cells (rat) (UniProt P05710)
Assay: FACS on rat lymphoma cell line Nb2, IgG1

Binder | EC50 [nM]
B1 | 0.9
B2 | 1.1
B3 | 1.2
